Data as given in paper PMC3282739.

What was measured:
[1] = target: Cthe_2751 (Clostridium thermocellum); assay: AUC; sedimentation velocity in an analytical ultracentrifuge; curve generated with Sedfit
[2] = target: Cthe_2751 (Clostridium thermocellum); assay: SEC; Hi Load 10/300 Superdex G75 gel filtration column equilibrated with 20 mM Tris-HCl, 100 mM NaCl, pH 8.0

## Cthe_2751 (natural protein)
[1]
  stoichiometry N: 2
[2]
  stoichiometry N: 2
